Measurements reported in paper PMC7367873, “Dissecting the sequence determinants for dephosphorylation by the catalytic subunits of phosphatases PP1 and PP2A” (Nature Communications, 2020).
Blank lines part the entries; values can stand above or below the molecule they belong to.

How the values were obtained:
GFP-14-3-3β = GFP-14-3-3β co-IP with LC-MS/MS, untreated GFP-14-3-3β versus GFP control (14-3-3 interactome); format: binding, human
[1] = tested on: GFP-14-3-3β and its binding proteins; experiment: GFP-14-3-3β co-IP with LC-MS/MS label-free quantification, untreated versus PP1c-treated; design: species or system human
[2] = untreated vs GFP, LFQ intensities, replicates 1-3
[3] = PP1 vs untreated, LFQ intensities, replicates 1-3
[4] = log2 difference, pairwise comparison untreated vs GFP, label-free quantification, 3 replicates each
[5] = log2 difference, pairwise comparison PP1 vs untreated, label-free quantification, 3 replicates each

B1: HSPD1 (protein, UniProt P10809 27-573, looked up)
60 kDa heat shock protein, …: AKDVKFGADARALMLQGVDLLADAVAVTMGPKGRTVIIEQSWGSPKVTKDGVTVAKSIDLKDKYKNIGAKLVQDVANNTNEEAGDGTTTATVLARSIAKEGFEKISKGANPVEIRRGVMLAVDAVIAELKKQSKPVTTPEEIAQVATISANGDKEIGNIISDAMKKVGRKGVITVKDGKTLNDELEIIEGMKFDRGYISPYFINTSKGQKCEFQDAYVLLSEKKISSIQSIVPALEIANAHRKPLVIIAEDVDGEALSTLVLNRLKVGLQVVAVKAPGFGDNRKNQLKDMAIATGGAVFGEEGLTLNLEDVQPHDLGKVGEVIVTKDDAMLLKGKGDKAQIEKRIQEIIEQLDVTTSEYEKEKLNERLAKLSDGVAVLKVGGTSDVEVNEKKDRVTDALNATRAAVEEGIVLGGGCALLRCIPALDSLTPANEDQKIGIEIIKRTLKIPAMTIAKNAGVEGSLIVEKIMQSSSEVGYDAMAGDFVNMVEKGIIDPTKVVRTALLDAAGVASLLTTAEVVVTEIPKEEKDPGMGAMGGMGGGMGGGMF
Difference (log2), untreated vs GFP (GFP-14-3-3β; [2]): -0.2089 log2
Difference (log2), PP1 vs untreated [1, 3]: -0.8196 log2

B2: CDC42EP1 (protein, UniProt Q00587 1-391, looked up)
Cdc42 effector protein 1: MPGPQGGRGAATMSLGKLSPVGWVSSSQGKRRLTADMISHPLGDFRHTMHVGRGGDVFGDTSFLSNHGGSSGSTHRSPRSFLAKKLQLVRRVGAPPRRMASPPAPSPAPPAISPIIKNAISLPQLNQAAYDSLVVGKLSFDSSPTSSTDGHSSYGLDSGFCTISRLPRSEKPHDRDRDGSFPSEPGLRRSDSLLSFRLDLDLGPSLLSELLGVMSLPEAPAAETPAPAANPPAPTANPTGPAANPPATTANPPAPAANPSAPAATPTGPAANPPAPAASSTPHGHCPNGVTAGLGPVAEVKSSPVGGGPRGPAGPALGRHWGAGWDGGHHYPEMDARQERVEVLPQARASWESLDEEWRAPQAGSRTPVPSTVQANTFEFADAEEDDEVKV
Difference (log2), untreated vs GFP (GFP-14-3-3β; [2]): 1.906 log2
Difference (log2), PP1 vs untreated [1, 3]: -0.8522 log2

B3: KRT18 (protein, UniProt P05783 2-430, looked up)
Keratin, type I cytoskeletal …: SFTTRSTFSTNYRSLGSVQAPSYGARPVSSAASVYAGAGGSGSRISVSRSTSFRGGMGSGGLATGIAGGLAGMGGIQNEKETMQSLNDRLASYLDRVRSLETENRRLESKIREHLEKKGPQVRDWSHYFKIIEDLRAQIFANTVDNARIVLQIDNARLAADDFRVKYETELAMRQSVENDIHGLRKVIDDTNITRLQLETEIEALKEELLFMKKNHEEEVKGLQAQIASSGLTVEVDAPKSQDLAKIMADIRAQYDELARKNREELDKYWSQQIEESTTVVTTQSAEVGAAETTLTELRRTVQSLEIDLDSMRNLKASLENSLREVEARYALQMEQLNGILLHLESELAQTRAEGQRQAQEYEALLNIKVKLEAEIATYRRLLEDGEDFNLGDALDSSNSMQTIQKTTTRRIVDGKVVSETNDTKVLRH
Difference (log2), untreated vs GFP (GFP-14-3-3β; [4]): -2.259
Difference (log2), PP1 vs untreated [1, 5]: 1.649

B5: CDR2L (protein, UniProt Q86X02 1-465, looked up)
Cerebellar …: MRRAAGMEDFSAEEEESWYDQQDLEQDLHLAAELGKTLLERNKELEGSLQQMYSTNEEQVQEIEYLTKQLDTLRHVNEQHAKVYEQLDLTARDLELTNHRLVLESKAAQQKIHGLTETIERLQAQVEELQAQVEQLRGLEQLRVLREKRERRRTIHTFPCLKELCTSPRCKDAFRLHSSSLELGPRPLEQENERLQTLVGALRSQVSQERQRKERAEREYTAVLQEYSELERQLCEMEACRLRVQELEAELLELQQMKQAKTYLLGPDDHLAEALLAPLTQAPEADDPQPGRGDDLGAQDGVSSPAASPGHVVRKSCSDTALNAIVAKDPASRHAGNLTLHANSVRKRGMSILREVDEQYHALLEKYEELLSKCRQHGAGVRHAGVQTSRPISRDSSWRDLRGGEEGQGEVKAGEKSLSQHVEAVDKRLEQSQPEYKALFKEIFSRIQKTKADINATKVKTHSSK
Difference (log2), untreated vs GFP (GFP-14-3-3β; [2]): 4.028 log2
Difference (log2), PP1 vs untreated [1, 3]: -0.8285 log2

B6: COPB1 (protein, UniProt P53618 2-953, looked up)
Coatomer subunit beta: TAAENVCYTLINVPMDSEPPSEISLKNDLEKGDVKSKTEALKKVIIMILNGEKLPGLLMTIIRFVLPLQDHTIKKLLLVFWEIVPKTTPDGRLLHEMILVCDAYRKDLQHPNEFIRGSTLRFLCKLKEAELLEPLMPAIRACLEHRHSYVRRNAVLAIYTIYRNFEHLIPDAPELIHDFLVNEKDASCKRNAFMMLIHADQDRALDYLSTCIDQVQTFGDILQLVIVELIYKVCHANPSERARFIRCIYNLLQSSSPAVKYEAAGTLVTLSSAPTAIKAAAQCYIDLIIKESDNNVKLIVLDRLIELKEHPAHERVLQDLVMDILRVLSTPDLEVRKKTLQLALDLVSSRNVEELVIVLKKEVIKTNNVSEHEDTDKYRQLLVRTLHSCSVRFPDMAANVIPVLMEFLSDNNEAAAADVLEFVREAIQRFDNLRMLIVEKMLEVFHAIKSVKIYRGALWILGEYCSTKEDIQSVMTEIRRSLGEIPIVESEIKKEAGELKPEEEITVGPVQKLVTEMGTYATQSALSSSRPTKKEEDRPPLRGFLLDGDFFVAASLATTLTKIALRYVALVQEKKKQNSFVAEAMLLMATILHLGKSSLPKKPITDDDVDRISLCLKVLSECSPLMNDIFNKECRQSLSHMLSAKLEEEKLSQKKESEKRNVTVQPDDPISFMQLTAKNEMNCKEDQFQLSLLAAMGNTQRKEAADPLASKLNKVTQLTGFSDPVYAEAYVHVNQYDIVLDVLVVNQTSDTLQNCTLELATLGDLKLVEKPSPLTLAPHDFANIKANVKVASTENGIIFGNIVYDVSGAASDRNCVVLSDIHIDIMDYIQPATCTDAEFRQMWAEFEWENKVTVNTNMVDLNDYLQHILKSTNMKCLTPEKALSGYCGFMAANLYARSIFGEDALANVSIEKPIHQGPDAAVTGHIRIRAKSQGMALSLGDKINLSQKKTSI
Difference (log2), untreated vs GFP (GFP-14-3-3β; [2]): 0.6071 log2
Difference (log2), PP1 vs untreated [1, 3]: -0.8147 log2

B7: MATR3 (protein, UniProt P43243 2-847, looked up)
Matrin-3: SKSFQQSSLSRDSQGHGRDLSAAGIGLLAAATQSLSMPASLGRMNQGTARLASLMNLGMSSSLNQQGAHSALSSASTSSHNLQSIFNIGSRGPLPLSSQHRGDADQASNILASFGLSARDLDELSRYPEDKITPENLPQILLQLKRRRTEEGPTLSYGRDGRSATREPPYRVPRDDWEEKRHFRRDSFDDRGPSLNPVLDYDHGSRSQESGYYDRMDYEDDRLRDGERCRDDSFFGETSHNYHKFDSEYERMGRGPGPLQERSLFEKKRGAPPSSNIEDFHGLLPKGYPHLCSICDLPVHSNKEWSQHINGASHSRRCQLLLEIYPEWNPDNDTGHTMGDPFMLQQSTNPAPGILGPPPPSFHLGGPAVGPRGNLGAGNGNLQGPRHMQKGRVETSRVVHIMDFQRGKNLRYQLLQLVEPFGVISNHLILNKINEAFIEMATTEDAQAAVDYYTTTPALVFGKPVRVHLSQKYKRIKKPEGKPDQKFDQKQELGRVIHLSNLPHSGYSDSAVLKLAEPYGKIKNYILMRMKSQAFIEMETREDAMAMVDHCLKKALWFQGRCVKVDLSEKYKKLVLRIPNRGIDLLKKDKSRKRSYSPDGKESPSDKKSKTDGSQKTESSTEGKEQEEKSGEDGEKDTKDDQTEQEPNMLLESEDELLVDEEEAAALLESGSSVGDETDLANLGDVASDGKKEPSDKAVKKDGSASAAAKKKLKKVDKIEELDQENEAALENGIKNEENTEPGAESSENADDPNKDTSENADGQSDENKDDYTIPDEYRIGPYQPNVPVGIDYVIPKTGFYCKLCSLFYTNEEVAKNTHCSSLPHYQKLKKFLNKLAEERRQKKET
Difference (log2), untreated vs GFP (GFP-14-3-3β; GFP-14-3-3β co-IP LC-MS/MS, untreated vs GFP, student's t-test, label-free quantification, 3 replicates each): 1.234 log2
Difference (log2), PP1 vs untreated ([1]; GFP-14-3-3β co-IP LC-MS/MS, PP1 vs untreated, student's t-test, label-free quantification, 3 replicates each): -0.7331 log2

Second part, led by results:

Difference (log2), PP1 vs untreated [1, 5]: 1.651
B4: SLC16A3 (protein, UniProt O15427 2-465, looked up)
Monocarboxylate transporter 4: GGAVVDEGPTGVKAPDGGWGWAVLFGCFVITGFSYAFPKAVSVFFKELIQEFGIGYSDTAWISSILLAMLYGTGPLCSVCVNRFGCRPVMLVGGLFASLGMVAASFCRSIIQVYLTTGVITGLGLALNFQPSLIMLNRYFSKRRPMANGLAAAGSPVFLCALSPLGQLLQDRYGWRGGFLILGGLLLNCCVCAALMRPLVVTAQPGSGPPRPSRRLLDLSVFRDRGFVLYAVAASVMVLGLFVPPVFVVSYAKDLGVPDTKAAFLLTILGFIDIFARPAAGFVAGLGKVRPYSVYLFSFSMFFNGLADLAGSTAGDYGGLVVFCIFFGISYGMVGALQFEVLMAIVGTHKFSSAIGLVLLMEAVAVLVGPPSGGKLLDATHVYMYVFILAGAEVLTSSLILLLGNFFCIRKKPKEPQPEVAAAEEEKLHKPPADSGVDLREVEHFLKAEPEKNGEVVHTPETSV
Difference (log2), untreated vs GFP (GFP-14-3-3β; [4]): 0.1883

Difference (log2), PP1 vs untreated [1, 3]: -0.8415 log2
B8: UTP18 (protein, UniProt Q9Y5J1 1-556, looked up)
U3 small nucleolar …: MPPERRRRMKLDRRTGAKPKRKPGMRPDWKAGAGPGGPPQKPAPSSQRKPPARPSAAAAAIAVAAAEEERRLRQRNRLRLEEDKPAVERCLEELVFGDVENDEDALLRRLRGPRVQEHEDSGDSEVENEAKGNFPPQKKPVWVDEEDEDEEMVDMMNNRFRKDMMKNASESKLSKDNLKKRLKEEFQHAMGGVPAWAETTKRKTSSDDESEEDEDDLLQRTGNFISTSTSLPRGILKMKNCQHANAERPTVARISSVQFHPGAQIVMVAGLDNAVSLFQVDGKTNPKIQSIYLERFPIFKACFSANGEEVLATSTHSKVLYVYDMLAGKLIPVHQVRGLKEKIVRSFEVSPDGSFLLINGIAGYLHLLAMKTKELIGSMKINGRVAASTFSSDSKKVYASSGDGEVYVWDVNSRKCLNRFVDEGSLYGLSIATSRNGQYVACGSNCGVVNIYNQDSCLQETNPKPIKAIMNLVTGVTSLTFNPTTEILAIASEKMKEAVRLVHLPSCTVFSNFPVIKNKNISHVHTMDFSPRSGYFALGNEKGKALMYRLHHYSDF
Difference (log2), untreated vs GFP (GFP-14-3-3β; [2]): 2.416 log2

Difference (log2), PP1 vs untreated [1, 3]: -0.8521 log2
B9: NOLC1 (protein, UniProt Q14978 1-699, looked up)
Nucleolar and coiled-body …: MADAGIRRVVPSDLYPLVLGFLRDNQLSEVANKFAKATGATQQDANASSLLDIYSFWLKSAKVPERKLQANGPVAKKAKKKASSSDSEDSSEEEEEVQGPPAKKAAVPAKRVGLPPGKAAAKASESSSSEESSDDDDEEDQKKQPVQKGVKPQAKAAKAPPKKAKSSDSDSDSSSEDEPPKNQKPKITPVTVKAQTKAPPKPARAAPKIANGKAASSSSSSSSSSSSDDSEEEKAAATPKKTVPKKQVVAKAPVKAATTPTRKSSSSEDSSSDEEEEQKKPMKNKPGPYSSVPPPSAPPPKKSLGTQPPKKAVEKQQPVESSEDSSDESDSSSEEEKKPPTKAVVSKATTKPPPAKKAAESSSDSSDSDSSEDDEAPSKPAGTTKNSSNKPAVTTKSPAVKPAAAPKQPVGGGQKLLTRKADSSSSEEESSSSEEEKTKKMVATTKPKATAKAALSLPAKQAPQGSRDSSSDSDSSSSEEEEEKTSKSAVKKKPQKVAGGAAPSKPASAKKGKAESSNSSSSDDSSEEEEEKLKGKGSPRPQAPKANGTSALTAQNGKAAKNSEEEEEEKKKAAVVVSKSGSLKKRKQNEAAKEAETPQAKKIKLQTPNTFPKRKKGEKRASSPFRRVREEEIEVDSRVADNSFDAKRGAAGDWGERANQVLKFTKGKSFRHEKTKKKRGSYRGGSISVQVNSIKFDSE
Difference (log2), untreated vs GFP (GFP-14-3-3β; [2]): 2.872 log2
